The target of assay [1] is T1, RanQ69L:GTP (human, UniProt P62826 1-216, Q69L). In words: ITC; 530 µM RanQ69L:GTP titrated into 48 µM full-length RanBP3; 25°C; 300 mM NaCl, 5 mM MgCl2, 10 mM TRIS pH 7.4; single-site binding model; Kd,obs. Conditions: both partners purified. For orientation: ITC needs no label: the signal is the heat of the interaction.
The target in assay [2] is T1, RanQ69L:GTP. In words: ITC; 800 µM RanBP3 RBD (residues 310–454) titrated into 70 µM RanQ69L:GTP; 25°C; 300 mM NaCl, 5 mM MgCl2, 10 mM TRIS pH 7.4; single-site binding model; Kd,obs. The settings on record: both partners purified.

B1: Human full-length RanBP3 (residues 1–499; isoform B) (natural protein)
chain: MADLANEEKPAIAPPVFVFQKDKGQKRSAGGSSPEGGEDSDREDGNYCPPVKRERTSSLTQFPPSQSEERSSGFRLKPPTLIHGQAPSAGLPSQKPKEQQRSVLRPAVLQAPQPKALSQTVPSSGTNGVSLPADCTGAVPAASPDTAAWRSPSEAADEVCALEEKEPQKNESSNASEEEACEKKDPATQQAFVFGQNLRDRVKLINESVDEADMENAGHPSADTPTATNYFLQYISSSLENSTNSADASSNKFVFGQNMSERVLSPPKLNEVSSDANRENAAAESGSESSSQEATPEKESLAESAAAYTKATARKCLLEKVEVITGEEAESNVLQMQCKLFVFDKTSQSWVERGRGLLRLNDMASTDDGTLQSRLVMRTQGSLRLILNTKLWAQMQIDKASEKSIRITAMDTEDQGVKVFLISASSKDTGQLYAALHHRILALRSRVEQEQEAKMPAPEPGAAPSNEEDDSDDDDVLAPSGATAAGAGDEGDGQTTGST
In turn, B1 returned a Kd with RanQ69L:GTP [1] of 15 ± 3 µM.

B2: RanBP3 RBD (residues 310–454) (domain or fragment)
chain: KATARKCLLEKVEVITGEEAESNVLQMQCKLFVFDKTSQSWVERGRGLLRLNDMASTDDGTLQSRLVMRTQGSLRLILNTKLWAQMQIDKASEKSIRITAMDTEDQGVKVFLISASSKDTGQLYAALHHRILALRSRVEQEQEAK
B2: in the assay with RanQ69L:GTP [2], the Kd was found to be 14 ± 0.3 µM and the “stoichiometry N” value worked out at 0.93 ± 0.01.

As a reminder, the Kd is the concentration at which binding is half-saturated. A low value points to a tighter complex. A word on the stoichiometry N: it is a count of units in the complex or per binding partner.

The values are drawn from publication PMC3045386, “Insights into the Function of the CRM1 Cofactor RanBP3 from the Structure of Its Ran-Binding Domain” (PLoS ONE, 2011).
